Measurements taken from patent US20200024322A1 (Eli Lilly, published 2020).
Numbered stars: 1 amine (or outer) side, 2 acyl side, 3 side chain; on linkers, the order of the positions; unused ones are H or OH. Square brackets hold non-standard residues; d marks the D form. Side chains are listed from the residue outwards. Ends that are not written are not given here. * marks the point of attachment. C20 diacid = O=C(O)CCCCCCCCCCCCCCCCCCC(=O)*; γGlu = O=C(O)[C@H](CCC(=O)[*:2])N[*:1]; AEEA = NCCOCCOCC(=O)O; Aib = CC(C)(N)C(=O)O

How the values were obtained:
human GIP receptor = molecular target: T1, human GIP receptor (human, UniProt P48546 22-466); test: SPA, [125I]-GIP displacement, hGIPR membranes
T1 construct: whole, on cells; Used as crude membranes of stably transfected CHO cells; also called hGIPR
T1 sequence (looked up): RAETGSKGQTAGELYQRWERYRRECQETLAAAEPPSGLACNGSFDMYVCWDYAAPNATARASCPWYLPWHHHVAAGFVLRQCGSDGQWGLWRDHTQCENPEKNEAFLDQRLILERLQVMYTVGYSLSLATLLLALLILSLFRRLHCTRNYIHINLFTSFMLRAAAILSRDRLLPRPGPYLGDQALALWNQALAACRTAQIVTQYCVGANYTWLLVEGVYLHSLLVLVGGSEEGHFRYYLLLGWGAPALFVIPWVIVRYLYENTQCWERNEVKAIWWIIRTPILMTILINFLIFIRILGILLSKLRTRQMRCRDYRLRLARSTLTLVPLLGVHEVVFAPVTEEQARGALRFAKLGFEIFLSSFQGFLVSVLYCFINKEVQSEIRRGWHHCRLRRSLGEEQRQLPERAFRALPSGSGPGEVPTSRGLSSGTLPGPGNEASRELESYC

human glucagon receptor = molecular target: T2, human glucagon receptor (human, UniProt P47871 26-477); test: SPA, [125I]-Gcg displacement, hGcgR membranes
T2 construct: whole, on cells; Used as crude membranes of stably transfected HEK293 cells; also called hGcgR; hGLcgR
T2 sequence (P47871 26-477): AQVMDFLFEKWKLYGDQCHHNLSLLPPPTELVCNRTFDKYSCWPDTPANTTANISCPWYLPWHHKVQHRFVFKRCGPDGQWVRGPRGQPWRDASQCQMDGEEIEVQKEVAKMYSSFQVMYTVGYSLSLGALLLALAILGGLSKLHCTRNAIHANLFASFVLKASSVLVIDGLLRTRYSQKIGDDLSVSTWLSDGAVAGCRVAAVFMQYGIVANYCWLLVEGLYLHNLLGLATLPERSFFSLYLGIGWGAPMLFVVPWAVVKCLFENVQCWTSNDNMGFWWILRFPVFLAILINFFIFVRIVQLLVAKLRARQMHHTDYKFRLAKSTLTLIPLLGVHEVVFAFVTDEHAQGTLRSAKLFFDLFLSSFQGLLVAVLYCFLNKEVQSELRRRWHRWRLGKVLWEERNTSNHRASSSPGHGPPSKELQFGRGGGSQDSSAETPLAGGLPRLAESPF

human GLP-1 receptor = molecular target: T3, human GLP-1 receptor (human, UniProt P43220 24-463); test: SPA, [125I]-GLP-1 displacement, hGLP-1R membranes
T3 construct: whole, on cells; Used as crude membranes of stably transfected HEK293 cells; also called hGLP1R; hGLP-1R

B1: Example 9 (peptide)
peptide: Y[Aib]EGTFTSDYSILLDSK([AEEA-AEEA-γGlu-C20 diacid])AQ[Aib]AFIEYLIEGGPSSGAPPPS-NH2
modifications: N-terminus assumed
SMILES: CC[C@H](C)[C@H](NC(=O)[C@H](CC(C)C)NC(=O)[C@H](Cc1ccc(O)cc1)NC(=O)[C@H](CCC(=O)O)NC(=O)[C@@H](NC(=O)[C@H](Cc1ccccc1)NC(=O)[C@H](C)NC(=O)C(C)(C)NC(=O)[C@H](CCC(N)=O)NC(=O)[C@H](C)NC(=O)[C@H](CCCCNC(=O)COCCOCCNC(=O)COCCOCCNC(=O)CC[C@H](NC(=O)CCCCCCCCCCCCCCCCCCC(=O)O)C(=O)O)NC(=O)[C@H](CO)NC(=O)[C@H](CC(=O)O)NC(=O)[C@H](CC(C)C)NC(=O)[C@H](CC(C)C)NC(=O)[C@@H](NC(=O)[C@H](CO)NC(=O)[C@H](Cc1ccc(O)cc1)NC(=O)[C@H](CC(=O)O)NC(=O)[C@H](CO)NC(=O)[C@@H](NC(=O)[C@H](Cc1ccccc1)NC(=O)[C@@H](NC(=O)CNC(=O)[C@H](CCC(=O)O)NC(=O)C(C)(C)NC(=O)[C@@H](N)Cc1ccc(O)cc1)[C@@H](C)O)[C@@H](C)O)[C@@H](C)CC)[C@@H](C)CC)C(=O)N[C@@H](CCC(=O)O)C(=O)NCC(=O)NCC(=O)N1CCC[C@H]1C(=O)N[C@@H](CO)C(=O)N[C@@H](CO)C(=O)NCC(=O)N[C@@H](C)C(=O)N1CCC[C@H]1C(=O)N1CCC[C@H]1C(=O)N1CCC[C@H]1C(=O)N[C@@H](CO)C(N)=O
Ki (human GIP receptor): 0.127 nM
Ki (human glucagon receptor): 375 nM
Ki (human GLP-1 receptor): 14.9 nM

B2: Example 30 (peptide)
peptide: Y[Aib]EGTFTSDYSILLDKIK([AEEA-AEEA-γGlu-C20 diacid])Q[Aib]AFIEYLIEGGPSSGAPPPS-NH2
modifications: N-terminus assumed
SMILES: CC[C@H](C)[C@H](NC(=O)[C@H](CC(C)C)NC(=O)[C@H](Cc1ccc(O)cc1)NC(=O)[C@H](CCC(=O)O)NC(=O)[C@@H](NC(=O)[C@H](Cc1ccccc1)NC(=O)[C@H](C)NC(=O)C(C)(C)NC(=O)[C@H](CCC(N)=O)NC(=O)[C@H](CCCCNC(=O)COCCOCCNC(=O)COCCOCCNC(=O)CC[C@H](NC(=O)CCCCCCCCCCCCCCCCCCC(=O)O)C(=O)O)NC(=O)[C@@H](NC(=O)[C@H](CCCCN)NC(=O)[C@H](CC(=O)O)NC(=O)[C@H](CC(C)C)NC(=O)[C@H](CC(C)C)NC(=O)[C@@H](NC(=O)[C@H](CO)NC(=O)[C@H](Cc1ccc(O)cc1)NC(=O)[C@H](CC(=O)O)NC(=O)[C@H](CO)NC(=O)[C@@H](NC(=O)[C@H](Cc1ccccc1)NC(=O)[C@@H](NC(=O)CNC(=O)[C@H](CCC(=O)O)NC(=O)C(C)(C)NC(=O)[C@@H](N)Cc1ccc(O)cc1)[C@@H](C)O)[C@@H](C)O)[C@@H](C)CC)[C@@H](C)CC)[C@@H](C)CC)C(=O)N[C@@H](CCC(=O)O)C(=O)NCC(=O)NCC(=O)N1CCC[C@H]1C(=O)N[C@@H](CO)C(=O)N[C@@H](CO)C(=O)NCC(=O)N[C@@H](C)C(=O)N1CCC[C@H]1C(=O)N1CCC[C@H]1C(=O)N1CCC[C@H]1C(=O)N[C@@H](CO)C(N)=O
Ki (human GIP receptor): 0.151 nM
Ki (human glucagon receptor): 123 nM
Ki (human GLP-1 receptor): 6.2 nM

B3: Example 24 (peptide)
peptide: Y[Aib]EGTFTSDYK([AEEA-AEEA-γGlu-C20 diacid])ILLDKIAQ[Aib]AFIEYLIEGGPSSGAPPPS-NH2
modifications: N-terminus assumed
SMILES: CC[C@H](C)[C@H](NC(=O)[C@H](CCCCN)NC(=O)[C@H](CC(=O)O)NC(=O)[C@H](CC(C)C)NC(=O)[C@H](CC(C)C)NC(=O)[C@@H](NC(=O)[C@H](CCCCNC(=O)COCCOCCNC(=O)COCCOCCNC(=O)CC[C@H](NC(=O)CCCCCCCCCCCCCCCCCCC(=O)O)C(=O)O)NC(=O)[C@H](Cc1ccc(O)cc1)NC(=O)[C@H](CC(=O)O)NC(=O)[C@H](CO)NC(=O)[C@@H](NC(=O)[C@H](Cc1ccccc1)NC(=O)[C@@H](NC(=O)CNC(=O)[C@H](CCC(=O)O)NC(=O)C(C)(C)NC(=O)[C@@H](N)Cc1ccc(O)cc1)[C@@H](C)O)[C@@H](C)O)[C@@H](C)CC)C(=O)N[C@@H](C)C(=O)N[C@@H](CCC(N)=O)C(=O)NC(C)(C)C(=O)N[C@@H](C)C(=O)N[C@@H](Cc1ccccc1)C(=O)N[C@H](C(=O)N[C@@H](CCC(=O)O)C(=O)N[C@@H](Cc1ccc(O)cc1)C(=O)N[C@@H](CC(C)C)C(=O)N[C@H](C(=O)N[C@@H](CCC(=O)O)C(=O)NCC(=O)NCC(=O)N1CCC[C@H]1C(=O)N[C@@H](CO)C(=O)N[C@@H](CO)C(=O)NCC(=O)N[C@@H](C)C(=O)N1CCC[C@H]1C(=O)N1CCC[C@H]1C(=O)N1CCC[C@H]1C(=O)N[C@@H](CO)C(N)=O)[C@@H](C)CC)[C@@H](C)CC
Ki (human GIP receptor): 0.232 nM
Ki (human glucagon receptor): 49.8 nM
Ki (human GLP-1 receptor): 5.04 nM

B4: Example 27 (peptide)
peptide: Y[Aib]EGTFTSDYSILK([AEEA-AEEA-γGlu-C20 diacid])DKIAQ[Aib]AFIEYLIEGGPSSGAPPPS-NH2
modifications: N-terminus assumed
SMILES: CC[C@H](C)[C@H](NC(=O)[C@H](CCCCN)NC(=O)[C@H](CC(=O)O)NC(=O)[C@H](CCCCNC(=O)COCCOCCNC(=O)COCCOCCNC(=O)CC[C@H](NC(=O)CCCCCCCCCCCCCCCCCCC(=O)O)C(=O)O)NC(=O)[C@H](CC(C)C)NC(=O)[C@@H](NC(=O)[C@H](CO)NC(=O)[C@H](Cc1ccc(O)cc1)NC(=O)[C@H](CC(=O)O)NC(=O)[C@H](CO)NC(=O)[C@@H](NC(=O)[C@H](Cc1ccccc1)NC(=O)[C@@H](NC(=O)CNC(=O)[C@H](CCC(=O)O)NC(=O)C(C)(C)NC(=O)[C@@H](N)Cc1ccc(O)cc1)[C@@H](C)O)[C@@H](C)O)[C@@H](C)CC)C(=O)N[C@@H](C)C(=O)N[C@@H](CCC(N)=O)C(=O)NC(C)(C)C(=O)N[C@@H](C)C(=O)N[C@@H](Cc1ccccc1)C(=O)N[C@H](C(=O)N[C@@H](CCC(=O)O)C(=O)N[C@@H](Cc1ccc(O)cc1)C(=O)N[C@@H](CC(C)C)C(=O)N[C@H](C(=O)N[C@@H](CCC(=O)O)C(=O)NCC(=O)NCC(=O)N1CCC[C@H]1C(=O)N[C@@H](CO)C(=O)N[C@@H](CO)C(=O)NCC(=O)N[C@@H](C)C(=O)N1CCC[C@H]1C(=O)N1CCC[C@H]1C(=O)N1CCC[C@H]1C(=O)N[C@@H](CO)C(N)=O)[C@@H](C)CC)[C@@H](C)CC
Ki (human GIP receptor): 0.103 nM
Ki (human glucagon receptor): 315 nM
Ki (human GLP-1 receptor): 3.68 nM

B5: Example 25 (peptide)
peptide: Y[Aib]EGTFTSDYSK([AEEA-AEEA-γGlu-C20 diacid])LLDKIAQ[Aib]AFIEYLIEGGPSSGAPPPS-NH2
modifications: N-terminus assumed
SMILES: CC[C@H](C)[C@H](NC(=O)[C@H](CCCCN)NC(=O)[C@H](CC(=O)O)NC(=O)[C@H](CC(C)C)NC(=O)[C@H](CC(C)C)NC(=O)[C@H](CCCCNC(=O)COCCOCCNC(=O)COCCOCCNC(=O)CC[C@H](NC(=O)CCCCCCCCCCCCCCCCCCC(=O)O)C(=O)O)NC(=O)[C@H](CO)NC(=O)[C@H](Cc1ccc(O)cc1)NC(=O)[C@H](CC(=O)O)NC(=O)[C@H](CO)NC(=O)[C@@H](NC(=O)[C@H](Cc1ccccc1)NC(=O)[C@@H](NC(=O)CNC(=O)[C@H](CCC(=O)O)NC(=O)C(C)(C)NC(=O)[C@@H](N)Cc1ccc(O)cc1)[C@@H](C)O)[C@@H](C)O)C(=O)N[C@@H](C)C(=O)N[C@@H](CCC(N)=O)C(=O)NC(C)(C)C(=O)N[C@@H](C)C(=O)N[C@@H](Cc1ccccc1)C(=O)N[C@H](C(=O)N[C@@H](CCC(=O)O)C(=O)N[C@@H](Cc1ccc(O)cc1)C(=O)N[C@@H](CC(C)C)C(=O)N[C@H](C(=O)N[C@@H](CCC(=O)O)C(=O)NCC(=O)NCC(=O)N1CCC[C@H]1C(=O)N[C@@H](CO)C(=O)N[C@@H](CO)C(=O)NCC(=O)N[C@@H](C)C(=O)N1CCC[C@H]1C(=O)N1CCC[C@H]1C(=O)N1CCC[C@H]1C(=O)N[C@@H](CO)C(N)=O)[C@@H](C)CC)[C@@H](C)CC
Ki (human GIP receptor): 0.179 nM
Ki (human glucagon receptor): 81.1 nM
Ki (human GLP-1 receptor): 4.8 nM

B6: Example 31 (peptide)
peptide: Y[Aib]EGTFTSDYSILLDKIAK([AEEA-AEEA-γGlu-C20 diacid])[Aib]AFIEYLIEGGPSSGAPPPS-NH2
modifications: N-terminus assumed
SMILES: CC[C@H](C)[C@H](NC(=O)[C@H](CCCCN)NC(=O)[C@H](CC(=O)O)NC(=O)[C@H](CC(C)C)NC(=O)[C@H](CC(C)C)NC(=O)[C@@H](NC(=O)[C@H](CO)NC(=O)[C@H](Cc1ccc(O)cc1)NC(=O)[C@H](CC(=O)O)NC(=O)[C@H](CO)NC(=O)[C@@H](NC(=O)[C@H](Cc1ccccc1)NC(=O)[C@@H](NC(=O)CNC(=O)[C@H](CCC(=O)O)NC(=O)C(C)(C)NC(=O)[C@@H](N)Cc1ccc(O)cc1)[C@@H](C)O)[C@@H](C)O)[C@@H](C)CC)C(=O)N[C@@H](C)C(=O)N[C@@H](CCCCNC(=O)COCCOCCNC(=O)COCCOCCNC(=O)CC[C@H](NC(=O)CCCCCCCCCCCCCCCCCCC(=O)O)C(=O)O)C(=O)NC(C)(C)C(=O)N[C@@H](C)C(=O)N[C@@H](Cc1ccccc1)C(=O)N[C@H](C(=O)N[C@@H](CCC(=O)O)C(=O)N[C@@H](Cc1ccc(O)cc1)C(=O)N[C@@H](CC(C)C)C(=O)N[C@H](C(=O)N[C@@H](CCC(=O)O)C(=O)NCC(=O)NCC(=O)N1CCC[C@H]1C(=O)N[C@@H](CO)C(=O)N[C@@H](CO)C(=O)NCC(=O)N[C@@H](C)C(=O)N1CCC[C@H]1C(=O)N1CCC[C@H]1C(=O)N1CCC[C@H]1C(=O)N[C@@H](CO)C(N)=O)[C@@H](C)CC)[C@@H](C)CC
Ki (human GIP receptor): 0.0275 nM
Ki (human glucagon receptor): 290 nM
Ki (human GLP-1 receptor): 6.58 nM
